{
  "source": "patent US20230345975A1",
  "about": "“COMPOSITIONS AND METHODS OF PRESERVING MEAT SUBSTITUTES” (Wisconsin Alumni Research Foundation, priority 2016, published 2023)",
  "target": "soybean Hb (Lba) (Glycine max, UniProt P02238)",
  "sequence (P02238 whole entry)": "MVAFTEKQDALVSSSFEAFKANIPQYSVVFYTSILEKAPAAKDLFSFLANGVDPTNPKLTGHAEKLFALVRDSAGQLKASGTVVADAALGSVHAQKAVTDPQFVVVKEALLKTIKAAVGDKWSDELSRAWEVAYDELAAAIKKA",
  "experiment": "Redness (a-value) of Lba solutions after exposure to 35 fc of light for 4 days",
  "settings": "35 fc light, 4 days, main effect over niacin amounts",
  "procedure": "FIG. 2—Effect of pH and different molar ratios of niacin to soybean Hb on the redness of Lba solutions. Measurement after exposure to 35 fc of light for 4 days\n100 grams of meat analog containing a 3:1 dose of niacin would provide 5.9 mg niacin; a 6:1 dose would provide 11.8 mg niacin.",
  "data": [
    {"molecule": "Lba: plant Hb (soybean hemoglobin; Lba) added to meat analog (protein, UniProt P02238 2-144, looked up) Leghemoglobin 3: VAFTEKQDALVSSSFEAFKANIPQYSVVFYTSILEKAPAAKDLFSFLANGVDPTNPKLTGHAEKLFALVRDSAGQLKASGTVVADAALGSVHAQKAVTDPQFVVVKEALLKTIKAAVGDKWSDELSRAWEVAYDELAAAIKKA", "values": [
      {"measurement": "Redness (a-value) at day 4", "setting": "pH 6.0", "value": 4.72, "unit": "a"},
      {"measurement": "Redness (a-value) at day 4", "setting": "pH 6.3", "value": 4.62, "unit": "ab"},
      {"measurement": "Redness (a-value) at day 4", "setting": "pH 6.6", "value": 4.45, "unit": "b"},
      {"measurement": "Redness (a-value) at day 4", "setting": "pH 7.0", "value": 3.99, "unit": "c"}
    ]}
  ]
}
